Results as given in patent US20220204580A1 (AstraZeneca / MedImmune, published 2022).
Numbered stars: 1 amine (or outer) side, 2 acyl side, 3 side chain; on linkers, the order of the positions; unused ones are H or OH. Bridge positions count the residues as written; N and C are the ends. Square brackets hold non-standard residues; d marks the D form. Side chains are listed from the residue outwards. Ends that are not written are not given here. * marks the point of attachment. C18 diacid = O=C(O)CCCCCCCCCCCCCCCCC(=O)*; γGlu = O=C(O)[C@H](CCC(=O)[*:2])N[*:1]; Aib = CC(C)(N)C(=O)O

T1: human calcitonin receptor (human, UniProt P30988 25-474)
T1 sequence (looked up): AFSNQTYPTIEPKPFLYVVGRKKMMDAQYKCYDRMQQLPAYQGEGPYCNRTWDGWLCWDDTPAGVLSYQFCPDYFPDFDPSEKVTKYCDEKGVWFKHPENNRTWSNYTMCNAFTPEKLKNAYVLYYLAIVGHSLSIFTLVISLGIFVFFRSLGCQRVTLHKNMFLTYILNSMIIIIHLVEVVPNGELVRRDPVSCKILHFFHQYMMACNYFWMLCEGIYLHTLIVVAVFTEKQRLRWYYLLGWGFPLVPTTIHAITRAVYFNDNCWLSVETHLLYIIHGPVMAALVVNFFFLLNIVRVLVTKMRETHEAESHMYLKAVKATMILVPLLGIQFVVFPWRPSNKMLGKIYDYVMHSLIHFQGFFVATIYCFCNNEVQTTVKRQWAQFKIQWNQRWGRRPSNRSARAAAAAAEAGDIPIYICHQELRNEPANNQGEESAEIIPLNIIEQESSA

T2: human amylin receptor (calcitonin receptor co-expressed with receptor activity modifying protein, RAMP3) (human, UniProt P30988 25-474; O60896 24-148)
T2 sequence (looked up) 1: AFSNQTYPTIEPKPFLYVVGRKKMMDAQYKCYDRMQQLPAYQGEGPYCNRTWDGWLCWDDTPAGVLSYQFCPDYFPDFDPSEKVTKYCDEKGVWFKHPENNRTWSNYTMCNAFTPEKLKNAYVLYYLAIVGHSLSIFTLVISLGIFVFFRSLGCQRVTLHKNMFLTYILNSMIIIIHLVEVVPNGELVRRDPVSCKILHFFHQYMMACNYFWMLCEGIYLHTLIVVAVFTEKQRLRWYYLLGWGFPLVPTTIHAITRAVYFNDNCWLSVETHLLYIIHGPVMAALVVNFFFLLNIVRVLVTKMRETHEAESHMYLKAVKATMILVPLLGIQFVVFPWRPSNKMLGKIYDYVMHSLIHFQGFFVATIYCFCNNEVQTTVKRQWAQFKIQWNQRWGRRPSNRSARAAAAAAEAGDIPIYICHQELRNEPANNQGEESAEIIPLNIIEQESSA
T2 sequence (looked up) 2: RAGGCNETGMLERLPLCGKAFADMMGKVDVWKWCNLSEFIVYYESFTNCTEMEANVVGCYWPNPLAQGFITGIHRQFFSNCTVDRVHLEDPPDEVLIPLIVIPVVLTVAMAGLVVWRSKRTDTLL


Columns and labels:
[1] = target: T1, human calcitonin receptor; test: cell-based or functional assay
[2] = target: T2, human amylin receptor (calcitonin …); test: cell-based or functional assay

| Binder | EC50 (cAMP production) [1] [nM] | EC50 (cAMP production) [2] [nM] | Ratio (EC50 hCTR / EC50 hAMYR3) [2] |
| --- | --- | --- | --- |
| K([γGlu-γGlu-C18 diacid])CNTATCATQRLANFLVHSS[Aib]NFGPILPPTNVGSRTY-NH2 (disulfide 2-7; N-terminus assumed; SMILES CC[C@H](C)[C@H](NC(=O)[C@@H]1CCCN1C(=O)CNC(=O)[C@H](Cc1ccccc1)NC(=O)[C@H](CC(N)=O)NC(=O)C(C)(C)NC(=O)[C@H](CO)NC(=O)[C@H](CO)NC(=O)[C@H](Cc1c[nH]cn1)NC(=O)[C@@H](NC(=O)[C@H](CC(C)C)NC(=O)[C@H](Cc1ccccc1)NC(=O)[C@H](CC(N)=O)NC(=O)[C@H](C)NC(=O)[C@H](CC(C)C)NC(=O)[C@H](CCCNC(=N)N)NC(=O)[C@H](CCC(N)=O)NC(=O)[C@@H](NC(=O)[C@H](C)NC(=O)[C@@H]1CSSC[C@H](NC(=O)[C@@H](N)CCCCNC(=O)CC[C@H](NC(=O)CC[C@H](NC(=O)CCCCCCCCCCCCCCCCC(=O)O)C(=O)O)C(=O)O)C(=O)N[C@@H](CC(N)=O)C(=O)N[C@@H]([C@@H](C)O)C(=O)N[C@@H](C)C(=O)N[C@@H]([C@@H](C)O)C(=O)N1)[C@@H](C)O)C(C)C)C(=O)N[C@@H](CC(C)C)C(=O)N1CCC[C@H]1C(=O)N1CCC[C@H]1C(=O)N[C@H](C(=O)N[C@@H](CC(N)=O)C(=O)N[C@H](C(=O)NCC(=O)N[C@@H](CO)C(=O)N[C@@H](CCCNC(=N)N)C(=O)N[C@H](C(=O)N[C@@H](Cc1ccc(O)cc1)C(N)=O)[C@@H](C)O)C(C)C)[C@@H](C)O) [Peptide 72 (SEQ ID NO: 72)] | 4 | 0.227 | 18 |
| {C18 diacid}-[γGlu]KCNTATCATQRLANFLVHSS[Aib]NFGPILPPTRVGSNTY-NH2 (disulfide 3-8; SMILES CC[C@H](C)[C@H](NC(=O)[C@@H]1CCCN1C(=O)CNC(=O)[C@H](Cc1ccccc1)NC(=O)[C@H](CC(N)=O)NC(=O)C(C)(C)NC(=O)[C@H](CO)NC(=O)[C@H](CO)NC(=O)[C@H](Cc1c[nH]cn1)NC(=O)[C@@H](NC(=O)[C@H](CC(C)C)NC(=O)[C@H](Cc1ccccc1)NC(=O)[C@H](CC(N)=O)NC(=O)[C@H](C)NC(=O)[C@H](CC(C)C)NC(=O)[C@H](CCCNC(=N)N)NC(=O)[C@H](CCC(N)=O)NC(=O)[C@@H](NC(=O)[C@H](C)NC(=O)[C@@H]1CSSC[C@H](NC(=O)[C@H](CCCCN)NC(=O)CC[C@H](NC(=O)CCCCCCCCCCCCCCCCC(=O)O)C(=O)O)C(=O)N[C@@H](CC(N)=O)C(=O)N[C@@H]([C@@H](C)O)C(=O)N[C@@H](C)C(=O)N[C@@H]([C@@H](C)O)C(=O)N1)[C@@H](C)O)C(C)C)C(=O)N[C@@H](CC(C)C)C(=O)N1CCC[C@H]1C(=O)N1CCC[C@H]1C(=O)N[C@H](C(=O)N[C@@H](CCCNC(=N)N)C(=O)N[C@H](C(=O)NCC(=O)N[C@@H](CO)C(=O)N[C@@H](CC(N)=O)C(=O)N[C@H](C(=O)N[C@@H](Cc1ccc(O)cc1)C(N)=O)[C@@H](C)O)C(C)C)[C@@H](C)O) [Peptide 71 (SEQ ID NO: 71)] | 1.39 | 0.211 | 7 |

The remaining lines, values ahead:

| EC50 (cAMP production) [1] [nM] | EC50 (cAMP production) [2] [nM] | Ratio (EC50 hCTR / EC50 hAMYR3) [2] | Binder |
| --- | --- | --- | --- |
| 1.82 | 0.256 | 7 | K([γGlu-C18 diacid])KCNTATCATQRLANFLVHSS[Aib]NFGPILPPTNVGSRTY-NH2 (disulfide 3-8; N-terminus assumed; SMILES CC[C@H](C)[C@H](NC(=O)[C@@H]1CCCN1C(=O)CNC(=O)[C@H](Cc1ccccc1)NC(=O)[C@H](CC(N)=O)NC(=O)C(C)(C)NC(=O)[C@H](CO)NC(=O)[C@H](CO)NC(=O)[C@H](Cc1c[nH]cn1)NC(=O)[C@@H](NC(=O)[C@H](CC(C)C)NC(=O)[C@H](Cc1ccccc1)NC(=O)[C@H](CC(N)=O)NC(=O)[C@H](C)NC(=O)[C@H](CC(C)C)NC(=O)[C@H](CCCNC(=N)N)NC(=O)[C@H](CCC(N)=O)NC(=O)[C@@H](NC(=O)[C@H](C)NC(=O)[C@@H]1CSSC[C@H](NC(=O)[C@H](CCCCN)NC(=O)[C@@H](N)CCCCNC(=O)CC[C@H](NC(=O)CCCCCCCCCCCCCCCCC(=O)O)C(=O)O)C(=O)N[C@@H](CC(N)=O)C(=O)N[C@@H]([C@@H](C)O)C(=O)N[C@@H](C)C(=O)N[C@@H]([C@@H](C)O)C(=O)N1)[C@@H](C)O)C(C)C)C(=O)N[C@@H](CC(C)C)C(=O)N1CCC[C@H]1C(=O)N1CCC[C@H]1C(=O)N[C@H](C(=O)N[C@@H](CC(N)=O)C(=O)N[C@H](C(=O)NCC(=O)N[C@@H](CO)C(=O)N[C@@H](CCCNC(=N)N)C(=O)N[C@H](C(=O)N[C@@H](Cc1ccc(O)cc1)C(N)=O)[C@@H](C)O)C(C)C)[C@@H](C)O) [Peptide 73 (SEQ ID NO: 73)] |
| 4.57 | 0.356 | 13 | K([γGlu-γGlu-C18 diacid])KCNTATCATQRLANFLVHSS[Aib]NFGPILPPTNVGSRTY-NH2 (disulfide 3-8; N-terminus assumed; SMILES CC[C@H](C)[C@H](NC(=O)[C@@H]1CCCN1C(=O)CNC(=O)[C@H](Cc1ccccc1)NC(=O)[C@H](CC(N)=O)NC(=O)C(C)(C)NC(=O)[C@H](CO)NC(=O)[C@H](CO)NC(=O)[C@H](Cc1c[nH]cn1)NC(=O)[C@@H](NC(=O)[C@H](CC(C)C)NC(=O)[C@H](Cc1ccccc1)NC(=O)[C@H](CC(N)=O)NC(=O)[C@H](C)NC(=O)[C@H](CC(C)C)NC(=O)[C@H](CCCNC(=N)N)NC(=O)[C@H](CCC(N)=O)NC(=O)[C@@H](NC(=O)[C@H](C)NC(=O)[C@@H]1CSSC[C@H](NC(=O)[C@H](CCCCN)NC(=O)[C@@H](N)CCCCNC(=O)CC[C@H](NC(=O)CC[C@H](NC(=O)CCCCCCCCCCCCCCCCC(=O)O)C(=O)O)C(=O)O)C(=O)N[C@@H](CC(N)=O)C(=O)N[C@@H]([C@@H](C)O)C(=O)N[C@@H](C)C(=O)N[C@@H]([C@@H](C)O)C(=O)N1)[C@@H](C)O)C(C)C)C(=O)N[C@@H](CC(C)C)C(=O)N1CCC[C@H]1C(=O)N1CCC[C@H]1C(=O)N[C@H](C(=O)N[C@@H](CC(N)=O)C(=O)N[C@H](C(=O)NCC(=O)N[C@@H](CO)C(=O)N[C@@H](CCCNC(=N)N)C(=O)N[C@H](C(=O)N[C@@H](Cc1ccc(O)cc1)C(N)=O)[C@@H](C)O)C(C)C)[C@@H](C)O) [Peptide 74 (SEQ ID NO: 74)] |
